B1: Anti-EM-8F9mut1单克隆抗体 (antibody, mouse IgG2a, kappa, V domains shown)
VH: QVPLQQPGAALVKPGASVKLSCQASDYTFTNYNMHWVKQTPGQGLEWIGTIYAGDGDPSYNQKFKGQATLTADKSSSTAYMQLLSLTSEDSAVYYCARGGTRAMDYWGHGTSVTVSS
VL: DVLLTQIPLSLPVSLGDQASLSCRSSQTLVHSDGNTYLAWYLQKPGQSPKLLIYKVSRRFSGVPDRFSGSGSGTDFTLKISRVEAEDLGVYYCFQGSHVPFTFGSGTKLEVKR

Tests used:
[1] = biological target: 红细胞胞膜抗原 (Erythrocyte membrane antigen) on human fresh red blood cells (human); experiment: ELISA on formaldehyde-fixed human red blood cells; antibody at 25 ng/ml
[2] = biological target: 红细胞胞膜抗原 (Erythrocyte membrane antigen) on human fresh red blood cells (human); experiment: ELISA on formaldehyde-fixed human red blood cells; antibody at 3.125 ng/ml
[3] = biological target: 红细胞胞膜抗原 (Erythrocyte membrane antigen) on human fresh red blood cells (human); experiment: ELISA on formaldehyde-fixed human red blood cells; antibody at 12.5 ng/ml
[4] = biological target: 红细胞胞膜抗原 (Erythrocyte membrane antigen) on human fresh red blood cells (human); experiment: ELISA on formaldehyde-fixed human red blood cells; antibody at 0 ng/ml (blank)
[5] = biological target: 红细胞胞膜抗原 (Erythrocyte membrane antigen) on human fresh red blood cells (human); experiment: ELISA on formaldehyde-fixed human red blood cells; antibody at 50 ng/ml
[6] = biological target: 红细胞胞膜抗原 (Erythrocyte membrane antigen) on human fresh red blood cells (human); experiment: ELISA on formaldehyde-fixed human red blood cells; antibody at 6.25 ng/ml
[7] = biological target: 红细胞胞膜抗原 (Erythrocyte membrane antigen) on human fresh red blood cells (human); experiment: ELISA on red blood cells; Anti-EM-8F9mut1 stored 21 days at -80 C; antibody at 1.5625 ng/ml
[8] = biological target: 红细胞胞膜抗原 (Erythrocyte membrane antigen) on human fresh red blood cells (human); experiment: ELISA on red blood cells; Anti-EM-8F9mut1 stored 21 days at 4 C; antibody at 1.5625 ng/ml
[9] = biological target: 红细胞胞膜抗原 (Erythrocyte membrane antigen) on human fresh red blood cells (human); experiment: ELISA on red blood cells; Anti-EM-8F9mut1 stored 21 days at 4 C; antibody at 0 ng/ml (blank)
[10] = biological target: 红细胞胞膜抗原 (Erythrocyte membrane antigen) on human fresh red blood cells (human); experiment: ELISA on red blood cells; Anti-EM-8F9mut1 stored 21 days at 37 C; antibody at 0 ng/ml (blank)
[11] = biological target: 红细胞胞膜抗原 (Erythrocyte membrane antigen) on human fresh red blood cells (human); experiment: ELISA on red blood cells; Anti-EM-8F9mut1 stored 21 days at -80 C; antibody at 12.5 ng/ml
[12] = biological target: 红细胞胞膜抗原 (Erythrocyte membrane antigen) on human fresh red blood cells (human); experiment: ELISA on red blood cells; Anti-EM-8F9mut1 stored 21 days at 37 C; antibody at 12.5 ng/ml
[13] = biological target: 红细胞胞膜抗原 (Erythrocyte membrane antigen) on human fresh red blood cells (human); experiment: ELISA on red blood cells; Anti-EM-8F9mut1 stored 21 days at 4 C; antibody at 12.5 ng/ml
[14] = biological target: 红细胞胞膜抗原 (Erythrocyte membrane antigen) on human fresh red blood cells (human); experiment: ELISA on red blood cells; Anti-EM-8F9mut1 stored 21 days at -80 C; antibody at 0 ng/ml (blank)
[15] = biological target: 红细胞胞膜抗原 (Erythrocyte membrane antigen) on human fresh red blood cells (human); experiment: ELISA on red blood cells; Anti-EM-8F9mut1 stored 21 days at 37 C; antibody at 1.5625 ng/ml

Molecule	OD450 (ref 630 nm) [1]	OD450 (ref 630 nm) [2]	OD450 (ref 630 nm) [3]	OD450 (ref 630 nm) [4]	OD450 (ref 630 nm) [5]	OD450 (ref 630 nm) [6]	OD450 (ref 630 nm) [7]	OD450 (ref 630 nm) [8]	OD450 (ref 630 nm) [9]	OD450 (ref 630 nm) [10]	OD450 (ref 630 nm) [11]	OD450 (ref 630 nm) [12]	OD450 (ref 630 nm) [13]	OD450 (ref 630 nm) [14]	OD450 (ref 630 nm) [15]
对照抗体 (antibody)	1.3 OD	0.196 OD	0.696 OD	0.041 OD	1.89 OD	0.408 OD									
B1	2.42 OD	1.28 OD	2.33 OD	0.063 OD	2.36 OD	2 OD	0.647 OD	0.691 OD	0.047 OD	0.057 OD	2.15 OD	2.13 OD	2.12 OD	0.051 OD	0.666 OD

Reference: CN116535505A
